± gives the standard deviation of the averaged measurements.
System: ATP
Test: switch fluorescence ratio, 500 uM ATP over buffer (Cy3 cluster intensity, sum of 5 cycles each) (fold (ratio)); higher = stronger signal-on switching upon ATP binding; sequences stand for … in TCGTCGGCAGCGTCAGATGTGTATAAGAGACAGTTTTTTTTTTTTTTTTTTTTTTTTT…TC
Conditions: aptamer strand: ATP DNA aptamer (quencher-CACCTGGGGGAGTATTGCGGAGGAAGG + anchor), 100 nM annealed; ATP concentration: 500 uM
Method in brief: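 After annealing to 100 nM quencher-labelled ATP aptamer, Cy3-labelled switching-strand clusters on a modified Illumina MiSeq flow-cell were imaged in selection buffer. A second image followed after 15 min with 500 uM ATP at 22 °C, and five such buffer/ATP cycles were done, each separated by NaOH stripping and re-annealing. The fluorescence ratio, averaged per switch-domain sequence, is summed target-cycle over summed buffer-cycle Cy3 intensity per cluster, with clusters outside 100-1000 RFU excluded.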
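Note: ATP exposure 15 min at 22 °C before imaging.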

Row | Sequence | switch fluorescence ratio
1 | GCGAAGTGCG | 0.979 ± 0.015
2 | AGGAGATAAA | 0.983 ± 0.015
3 | AAAGTCTTT | 1.02 ± 0.047
4 | ATTGTGGGAC | 0.996 ± 0.077
5 | GTTAACTTGA | 1.01 ± 0.011
6 | GATAGGTATA | 1.01 ± 0.032
7 | TAGGATGAAG | 1.03 ± 0.011
8 | CTTAGGGATT | 0.987 ± 0.031
9 | TTTAATATTT | 1.04 ± 0.077
10 | AACTTGAAAT | 1.47 ± 0.69
11 | GGTGCGTTGG | 1.03 ± 0.042
12 | GAATAATTGG | 0.996 ± 0.015
13 | ACATGGGGTT | 0.998 ± 0.03
14 | TGGGGGGAGG | 1 ± 0.036
15 | AAGGTGGGAC | 1.02 ± 0.021
16 | ATATAAGTAG | 1.03 ± 0.014
17 | AAGGGGACGA | 0.978 ± 0.033
18 | AGTGGGGGTA | 0.995 ± 0.028
19 | CTCACATTGA | 1.05 ± 0.025
20 | GATATTGAGC | 1.02 ± 0.026
21 | TAGAAATGAT | 0.987 ± 0.033
22 | TAATATCATT | 1 ± 0.019
23 | CGTTCAATGT | 1.026 ± 0.0085

Row | Sequence | switch fluorescence ratio
24 | TCCAGGGGCG | 1.73 ± 0.99
25 | AGATCGTTTT | 0.999 ± 0.012
26 | ATAAAGAAGT | 1.007 ± 0.0052
27 | GGGGCTAGTT | 0.963 ± 0.02
28 | TGTAGGGGGG | 0.973 ± 0.034
29 | AGGTATGGGG | 0.998 ± 0.034
30 | GGTTATAGTT | 1.01 ± 0.011
31 | CGTGAGTGGT | 1.018 ± 0.0037
32 | AACATTAAGC | 1.04 ± 0.021
33 | CAAATACTTG | 1.04 ± 0.019
34 | ACCCGTTTTG | 1.01 ± 0.025
35 | TTTTTACTGG | 1 ± 0.03
36 | CAAATTTTTT | 1.01 ± 0.02
37 | CTGTAGAGAG | 1.01 ± 0.063
38 | GAGTGCAGGG | 0.994 ± 0.03
39 | GGTAGTAGTG | 1.0054 ± 0.00082
40 | CGGCAGAAAT | 0.967 ± 0.022
41 | CAGAGATGGG | 0.9997 ± 0.0049
42 | CCCATTTAGG | 1.04 ± 0.084
43 | TTCGTAAAAA | 1.09 ± 0.089
44 | CGGGTGGGTG | 1.01 ± 0.013
45 | AATAGAGTTA | 1.02 ± 0.023
46 | GAGTTTCAGA | 1.033 ± 0.0033

Row | Sequence | switch fluorescence ratio
47 | CCGGGGGCTA | 2.69 ± 1.9
48 | AAATATATTA | 1.02 ± 0.016
49 | ATAGGTCTCG | 1 ± 0.031
50 | AAATTTGAAT | 1.0094 ± 0.00021
51 | TGTTCCGGGG | 1.013 ± 0.0063
52 | TTGATGCAGC | 0.958 ± 0.054
53 | ACTTAGGTTG | 1.04 ± 0.017
54 | TTAGTGAAGG | 1.01 ± 0.023
55 | TTTTGGTCTT | 1 ± 0.028
56 | ACAGTGTGTT | 0.979 ± 0.018
57 | GAAGGGTGGG | 1 ± 0.022
58 | TGTTAAAAAT | 1.01 ± 0.029
59 | CGGTAGGATC | 0.995 ± 0.03
60 | GATGGCTGCG | 1.04 ± 0.039
61 | TGGGGAGAAG | 0.994 ± 0.013
62 | CCTTTGCCCG | 1.07 ± 0.17
63 | CTGAATTTCA | 0.9833 ± 0.0017
64 | TCTGACAATC | 1.91 ± 0.24
65 | GCTGGGAAGG | 0.978 ± 0.013
66 | AAGTACGCTG | 1 ± 0.11
67 | GCTCCTGTGC | 1.1992 ± 0.00049
68 | TCGAGATATG | 0.978 ± 0.09
69 | GGATGGTGAG | 0.972 ± 0.011

Row | Sequence | switch fluorescence ratio
70 | AGCAATCGTT | 1.54 ± 0.071
71 | GGATGCTAGA | 0.996 ± 0.024
72 | TGAAAAGGGA | 1.01 ± 0.017
73 | TTAAATCGGC | 0.991 ± 0.043
74 | CGGTGTTGTT | 1.018 ± 0.0014
75 | CAAAGATGG | 0.947 ± 0.013
76 | CCATGGTACG | 1.051 ± 0.01
77 | CTGTAGGTGT | 1.06 ± 0.029
78 | TAATCACCTA | 1.038 ± 0.0093
79 | TTTAATGGAA | 0.988 ± 0.012
80 | ATAATAATTT | 1.02 ± 0.011
81 | TAAAAAGGGC | 0.992 ± 0.057
82 | CATAAGGGGA | 0.994 ± 0.038
83 | CCTGTCTTCT | 0.9869 ± 0.0061
84 | GGTTTATGAC | 1.13 ± 0.27
85 | TGGTTGATAG | 0.9916 ± 0.0065
86 | TACAGAGGCA | 1.02 ± 0.031
87 | TTTGGTCTCA | 1 ± 0.02
88 | GAATTTTATG | 0.9549 ± 0.0062
89 | TGGTAATAGT | 1.02 ± 0.038
90 | CAAATACGGT | 1.25 ± 0.25
91 | CGGTGGGGGA | 0.986 ± 0.025
92 | GAGGGGAGGG | 1.04 ± 0.065

Row | Sequence | switch fluorescence ratio
93 | AATAATATAG | 0.996 ± 0.031
94 | GAGGCAGAAT | 1.03 ± 0.012
95 | TACGGTGGTG | 0.987 ± 0.018
96 | GCAGGAATGG | 1.113 ± 0.0098
97 | GGGAGATTTT | 1.01 ± 0.035
98 | AGGGGCGACT | 0.984 ± 0.03
99 | TCTCCGAGTG | 1.45 ± 0.17
100 | CAGATGACAG | 0.997 ± 0.012
101 | TGACGGGTTT | 1.06 ± 0.12
102 | ATGTACTTTA | 1.06 ± 0.028
103 | ATAGGGGGGG | 1.03 ± 0.025
104 | CGGAGCAGGT | 2.09 ± 0.42
105 | GATTGGGGGT | 0.982 ± 0.03
106 | TGTCTCCCTT | 1.007 ± 0.0074
107 | TGTTATTTCA | 1.02 ± 0.0065
108 | CGCTACGGAG | 1.02 ± 0.029
109 | GAAGGTTAAC | 1.03 ± 0.1
110 | GCGGAAGAGC | 1.06 ± 0.032
111 | TATATATAAC | 1.006 ± 0.0081
112 | TGTTAGTGGT | 1.01 ± 0.023
113 | CATGTTTCTG | 0.9927 ± 0.0078
114 | GTCATCGAGT | 1.008 ± 0.0039
115 | GCGGACAGTT | 0.9675 ± 0.0086

Row | Sequence | switch fluorescence ratio
116 | GATTTCGATT | 0.969 ± 0.012
117 | GGGGGGGTCC | 0.99 ± 0.025
118 | GTGTTGCCGA | 1 ± 0.079
119 | ACCGGTCTAT | 1.031 ± 0.00046
120 | TGTGGGTGGT | 1.01 ± 0.018
121 | TGTTGTTTTG | 1 ± 0.042
122 | TTTTTGGGGA | 1 ± 0.025
123 | GAGACATTGG | 1 ± 0.062
124 | TCGGGTAAAA | 1.01 ± 0.028
125 | TAAGCTAAGG | 1.04 ± 0.016
126 | GGATCATGGT | 1.034 ± 0.007
127 | GGAAGTTGGG | 0.98 ± 0.023
128 | ACCTGATATA | 1.03 ± 0.021
129 | CCGGGGTCTG | 0.995 ± 0.035
130 | CTAATAGTTA | 0.972 ± 0.0099
131 | CTTAAATTTA | 1.02 ± 0.022
132 | TATGGTCAG | 1.02 ± 0.042
133 | GGGGGACCGA | 1.02 ± 0.023
134 | TCTTTCAGGA | 0.999 ± 0.013
135 | TATCCTTTCA | 1.04 ± 0.026
136 | GCATGAATCT | 1.014 ± 0.0084
137 | CTGTCTGGGT | 0.993 ± 0.029
138 | TAGGCTATAT | 1.01 ± 0.042

Row | Sequence | switch fluorescence ratio
139 | ACGGGTCCGT | 0.986 ± 0.011
140 | CTGTTCATGG | 1.02 ± 0.019
141 | CGGGTTTTGA | 1.003 ± 0.0086
142 | AGGAGTCGTT | 1.02 ± 0.044
143 | TTAATTAGTT | 1.01 ± 0.023
144 | GTTTATTACT | 1.01 ± 0.021
145 | ATTGGGGATG | 0.9819 ± 0.0097
146 | TTTAGGTGTA | 0.985 ± 0.02
147 | GATTAGGCTC | 1.03 ± 0.082
148 | GGCAATTATT | 1.02 ± 0.026
149 | TCAATGGGGG | 0.985 ± 0.062
150 | AAGGATGGCC | 1.01 ± 0.021
151 | CACGCGGGGA | 1.01 ± 0.041
152 | AGGTTCCACG | 0.996 ± 0.03
153 | GACCTTGGTG | 1.03 ± 0.083
154 | GGCCGGAATT | 1.17 ± 0.19
155 | TCCGCACCGT | 1.76 ± 0.23
156 | GGTTCCTATG | 0.9909 ± 0.0079
157 | AAATTAACAT | 1.08 ± 0.13
